Results from patent US20170296524A1 (KLINIKUM RECHTS DER ISAR DER TECHNISCHEN UNIVERSITAT MUNCHEN, published 2017).

T1: FLAG-MCT1 (human, UniProt P53985 1-500)
T1 construct: Expressed in HEK293T cells; The tag is written first only because the name prints it so; also called Flag-tagged MCT1; not shown: FLAG tag
T1 sequence (looked up): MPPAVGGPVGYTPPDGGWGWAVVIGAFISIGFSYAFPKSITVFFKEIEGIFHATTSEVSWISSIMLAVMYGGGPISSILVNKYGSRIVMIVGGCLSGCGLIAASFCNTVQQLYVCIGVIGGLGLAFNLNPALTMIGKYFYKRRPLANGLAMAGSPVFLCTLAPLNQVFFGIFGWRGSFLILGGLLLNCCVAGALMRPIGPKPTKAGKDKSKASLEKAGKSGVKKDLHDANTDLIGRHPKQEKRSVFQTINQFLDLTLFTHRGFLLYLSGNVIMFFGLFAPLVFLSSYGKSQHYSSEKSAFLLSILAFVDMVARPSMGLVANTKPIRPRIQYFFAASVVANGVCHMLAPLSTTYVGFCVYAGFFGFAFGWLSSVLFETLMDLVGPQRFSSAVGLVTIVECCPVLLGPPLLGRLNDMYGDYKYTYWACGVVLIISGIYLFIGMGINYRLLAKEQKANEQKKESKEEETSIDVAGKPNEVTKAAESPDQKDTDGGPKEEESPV

B1: MCT1 (monocarboxylate transporter 1), endogenous (other, human, UniProt P53985 1-500, looked up)
chain: T1 sequence (looked up)
notes: Endogenous protein in HEK 293T or MM1S cell lysates
B2: CD147 (Basigin, EMMPRIN), endogenous (other, human, UniProt P35613-2 22-269, looked up)
chain: AAGTVFTTVEDLGSKILLTCSLNDSATEVTGHRWLKGGVVLKEDALPGQKTEFKVDSDDQWGEYSCVFLPEPMGTANIQLHGPPRVKAVKSSEHINEGETAMLVCKSESVPPVTDWAWYKITDSEDKALMNGSESRFFVSSSQGRSELHIENLNMEADPGQYRCNGTSSKGSDQAIITLRVRSHLAALWPFLGIVAEVLVLVTIIFIYEKRRKPEDVLDDDDAGSAPLKSSGQHQNDKGKNVRQRNSS
modifications: core-glycosylated (CG) and high-glycosylated (HG) forms
notes: as for B1
B3: HA-CD147 (other, human, UniProt P35613-2 22-269, looked up)
chain: B2 chain
notes: Expressed in HEK 293T cells; not shown: HA tag
B4: FLAG-CD147 (other, human, UniProt P35613-2 22-269, looked up)
chain: B2 chain
notes: Expressed in HEK293T cells; The tag is written first only because the name prints it so; also called FLAG-tagged CD147; not shown: FLAG tag

Key:
HA-CUL4A = biological target: T2, HA-CUL4A (UniProt Q13619 1-759, limits assumed); experiment: HA-CUL4A purified from HEK293T cells, incubated with MM1S extracts, immunoblot
T2 construct: Purified from HEK293T cells and incubated with MM1S cell extracts; not shown: HA tag
Description: Bound protein fractions were subjected to immunoblot analysis using the indicated antibodies.

[1] = biological target: T3, Cereblon (CRBN), human, wild type, without tag (endogenous or expressed from plasmid) (human, UniProt Q96SW2 1-442); experiment: co-immunoprecipitation
T3 construct: Endogenous protein in HEK 293T or MM1.S/MM1S lysates, or untagged wild-type CRBN re-expressed in CRBN-/- HEK 293T cells; also called CRBN WT; endogenous CRBN
Description: Immunocomplexes were probed with antibodies to the indicated proteins.
(§1) Cell samples were lysed in lysis buffer (NaCl 150mM, Tris-HCl 50 mM, MgCl2 5 mM, EDTA 1 mM, NP-40 0,1%, Glycerol 5% and inhibitors) for whole cell lysates, immunoprecipitations or pulldown experiments. […] Briefly, the cellular lysates were centrifuged 15 min at 14,000 rpm at 4° C. to separate from cellular debris. Protein concentration in the supernatants was measured before Laemmli buffer was added. The lysates were separated by SDS-PAGE and blotted onto PVDF (polyvinylidene difluoride) membranes. After blotting, PVDF membranes were stained with Ponceau solution to evaluate protein loading. After washing and blocking unspecific bindings in 5% milk, the membranes were incubated with primary antibodies. After addition of horseradish peroxidase coupled secondary antibodies, western blot membranes were developed using the ECL (enhanced chemoluminescence) method (SuperSignal West reagents from Thermo Scientific). […] For the experiments using a protein cross linker, DSS (Pierce) was added to the cells to a final concentration of 1 mM for 45 minutes at RT. […] After washing the beads four times in lysis buffer, Laemmli buffer was added and proteins were analyzed by SDS- electrophoresis.

[2] = biological target: T4, Strep-Flag tagged CRBN (CRBN-SF) (human, UniProt Q96SW2 1-442); experiment: tandem affinity purification (Strep, then Flag) from HEK 293T cells, mass spectrometry
T4 construct: Tag put at the C-terminus from the vector's name (pcDNA-C-SF-TAP); also called CRBN-SF-TAP; CRBN-tandem-Strep-FLAG-tagged; not shown: tandem Strep-FLAG tag of vector pcDNA-C-SF-TAP

FLAG-MCT1 [3] = biological target: T1, FLAG-MCT1; experiment: FLAG-MCT1 immunoprecipitation from cycloheximide-treated HEK293T cells, immunoblot (FIG. 13G)
FLAG-MCT1 [4] = biological target: T1, FLAG-MCT1; experiment: Flag-bead immunoprecipitation of Flag-MCT1 from HEK 293T cells with or without co-expressed CRBN, Western blot for CD147
Description: After lysis, MCT1 was immunoprecipitated with Flag-beads. Binding to CD147 was analysed by Western Blot.
as §1

[5] = biological target: B1; experiment: FLAG-CD147 immunoprecipitation from cycloheximide-treated HEK293T cells, immunoblot (FIG. 13F)
Description: Cells were treated with cycloheximide (CHX) for the indicated times before lysis.

[6] = biological target: T3, Cereblon (CRBN), human, wild type, …; experiment: heading of FIG. 16: FLAG immunoprecipitation from HEK293T cells (16A) and GST-CRBN pull-down (16B)

T2 sequence (Q13619 whole entry): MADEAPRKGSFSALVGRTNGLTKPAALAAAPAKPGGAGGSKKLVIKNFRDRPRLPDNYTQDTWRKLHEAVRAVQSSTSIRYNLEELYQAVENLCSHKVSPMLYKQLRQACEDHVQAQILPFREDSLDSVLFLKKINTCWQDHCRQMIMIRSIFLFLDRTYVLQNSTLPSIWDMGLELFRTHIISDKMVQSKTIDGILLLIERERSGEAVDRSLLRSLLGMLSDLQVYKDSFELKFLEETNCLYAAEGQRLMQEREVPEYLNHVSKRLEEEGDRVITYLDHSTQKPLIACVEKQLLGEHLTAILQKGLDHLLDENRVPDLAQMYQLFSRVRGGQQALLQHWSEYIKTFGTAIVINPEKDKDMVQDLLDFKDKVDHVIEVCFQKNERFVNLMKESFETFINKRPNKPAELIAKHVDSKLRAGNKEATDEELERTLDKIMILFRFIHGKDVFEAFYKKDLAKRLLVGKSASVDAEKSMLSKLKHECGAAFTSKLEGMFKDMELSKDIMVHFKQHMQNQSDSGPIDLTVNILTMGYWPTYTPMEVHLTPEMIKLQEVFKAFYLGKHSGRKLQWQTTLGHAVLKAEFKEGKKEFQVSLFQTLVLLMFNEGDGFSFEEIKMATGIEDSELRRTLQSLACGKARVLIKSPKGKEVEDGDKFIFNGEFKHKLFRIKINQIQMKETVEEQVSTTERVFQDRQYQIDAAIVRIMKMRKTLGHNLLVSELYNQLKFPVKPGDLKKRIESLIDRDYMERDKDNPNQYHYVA
T3 sequence (Q96SW2 whole entry): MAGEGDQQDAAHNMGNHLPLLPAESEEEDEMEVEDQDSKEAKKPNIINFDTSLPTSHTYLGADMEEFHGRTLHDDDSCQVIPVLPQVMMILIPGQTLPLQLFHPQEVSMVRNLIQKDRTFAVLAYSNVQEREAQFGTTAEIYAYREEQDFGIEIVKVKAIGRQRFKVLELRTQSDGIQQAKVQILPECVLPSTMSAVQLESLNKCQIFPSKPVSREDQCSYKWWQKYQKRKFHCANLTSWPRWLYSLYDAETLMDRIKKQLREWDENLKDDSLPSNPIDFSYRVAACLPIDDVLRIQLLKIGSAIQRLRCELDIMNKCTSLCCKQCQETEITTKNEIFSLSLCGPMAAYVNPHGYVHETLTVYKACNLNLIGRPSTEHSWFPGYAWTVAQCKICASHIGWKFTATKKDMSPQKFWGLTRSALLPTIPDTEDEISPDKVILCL
T4 sequence (Q96SW2 whole entry): as above

Binder: B1
binding result (HA-CUL4A): no binding

Binder: B2
binding result [1]: binds | binding result (HA-CUL4A): no binding | binding result [2]: binds | binding result (FLAG-MCT1 [3]): binds

Binder: B3
binding result (FLAG-MCT1 [4]): binds

Binder: B4
binding result [5]: binds | binding result [6]: binds
